The text below walks through data of article PMC3516755.

This assay has as its target rGlu^1-hPg[S741A] (human). As to the kind of experiment: SPR. On the technique in general: SPR reads the build-up and loss of mass on a sensor chip optically.
Substance rSK_(AP53) (natural protein) showed a Kd of 321 nM and a koff of 0.00246 s⁻¹.

rSK_(NS53) (natural protein) returned a koff of 0.00616 s⁻¹ and an association rate constant (kon) of 1.18e+06 M⁻¹ s⁻¹.

As to rSK_(NS88.2) (natural protein), the Kd worked out at 202 nM, the koff worked out at 0.00314 s⁻¹ and the kon came to 15500 M⁻¹ s⁻¹.

Substance rSK_(NS210) (natural protein) registered a koff of 0.00737 s⁻¹ and a kon of 302000 M⁻¹ s⁻¹.

In the case of rSK_(NS223) (natural protein), the Kd was found to be 255 nM and the koff was 0.00178 s⁻¹.

Turning to rSK_(NS455) (natural protein), the Kd worked out at 232 nM, the koff was 0.00306 s⁻¹ and the kon was 13200 M⁻¹ s⁻¹.

Consider rSK_(NS931) (natural protein), for which the koff turned out to be 0.00467 s⁻¹ and the kon came to 375000 M⁻¹ s⁻¹.

Turning to rSK_(NZ131) (natural protein), the koff was 0.0087 s⁻¹ and the kon worked out at 1.02e+06 M⁻¹ s⁻¹.

What is called Kd is the equilibrium constant for the complex coming apart. For orientation: koff means a measure of how fast the partners let go of each other. Low readings indicate a long-lived complex, high ones a short-lived complex. For orientation: kon means the second-order rate constant of association. A higher kon goes with fast association.
